These are literature values, as cited in publication PMC7596073.

The Kd is a measure of binding affinity in units of concentration.

The target in the data set is IL-18BP (Homo sapiens) (UniProt O95998).

Values joined by “and” are separate entries in the source; they are usually repeats but may differ in a detail not shown here. Equal values may be shown once.

Sequence of IL-18 (Q14116 37-193): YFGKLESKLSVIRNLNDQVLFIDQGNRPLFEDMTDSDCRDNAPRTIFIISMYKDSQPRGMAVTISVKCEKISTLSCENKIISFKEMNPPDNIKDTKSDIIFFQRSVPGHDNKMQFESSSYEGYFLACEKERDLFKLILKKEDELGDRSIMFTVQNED
Sequence of IL-18BP (Homo sapiens) (O95998 31-194): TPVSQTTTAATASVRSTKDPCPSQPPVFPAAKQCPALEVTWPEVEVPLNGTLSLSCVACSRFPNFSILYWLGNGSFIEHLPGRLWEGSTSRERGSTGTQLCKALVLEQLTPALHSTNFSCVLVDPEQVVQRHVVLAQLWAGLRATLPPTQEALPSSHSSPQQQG

IL-18 (from UniProt Q14116): the Kd was 0.04 nM and 0.4 nM.
